Experimental data taken from patent publication US20130195863A1, “Methods and Pharmaceutical Compositions for the Treatment of Bone Density Related Diseases” (priority 2010, published 2013).

B1: ShRNA-RB1: small hairpin RNA against human Robo1, SEQ ID NO:1 forward and SEQ ID NO:2 reverse, under U6 promoter (nucleic acid)
sense: ACCGCAGTACTAAGGGAACAATAAGTTCTCTATTGTTCCCTTAGTACTGCTTTTTC
antisense: TGCAGAAAAAGCAGTACTAAGGGAACAATAGAGAACTTATTGTTCCCTTAGTACTG
modifications: target site or template, no part of the molecule
B2: Slit2: natural ligand of ROBO1; tested as conditioned medium from HEK cells stably expressing human Slit-2 (protein)
chain: QCSCSGSTVDCHGLALRSVPRNIPRNTERLDLNGNNITRITKTDFAGLRHLRVLQLMENKISTIERGAFQDLKELERLRLNRNHLQLFPELLFLGTAKLYRLDLSENQIQAIPRKAFRGAVDIKNLQLDYNQISCIEDGAFRALRDLEVLTLNNNNITRLSVASFNHMPKLRTFRLHSNNLYCDCHLAWLSDWLRQRPRVGLYTQCMGPSHLRGHNVAEVQKREFVCSGHQSFMAPSCSVLHCPAACTCSNNIVDCRGKGLTEIPTNLPETITEIRLEQNTIKVIPPGAFSPYKKLRRIDLSNNQISELAPDAFQGLRSLNSLVLYGNKITELPKSLFEGLFSLQLLLLNANKINCLRVDAFQDLHNLNLLSLYDNKLQTIAKGTFSPLRAIQTMHLAQNPFICDCHLKWLADYLHTNPIETSGARCTSPRRLANKRIGQIKSKKFRCSAKEQYFIPGTEDYRSKLSGDCFADLACPEKCRCEGTTVDCSNQKLNKIPEHIPQYTAELRLNNNEFTVLEATGIFKKLPQLRKINFSNNKITDIEEGAFEGASGVNEILLTSNRLENVQHKMFKGLESLKTLMLRSNRITCVGNDSFIGLSSVRLLSLYDNQITTVAPGAFDTLHSLSTLNLLANPFNCNCYLAWLGEWLRKKRIVTGNPRCQKPYFLKEIPIQDVAIQDFTCDDGNDDNSCSPLSRCPTECTCLDTVVRCSNKGLKVLPKGIPRDVTELYLDGNQFTLVPKELSNYKHLTLIDLSNNRISTLSNQSFSNMTQLLTLILSYNRLRCIPPRTFDGLKSLRLLSLHGNDISVVPEGAFNDLSALSHLAIGANPLYCDCNMQWLSDWVKSEYKEPGIARCAGPGEMADKLLLTTPSKKFTCQGPVDVNILAKCNPCLSNPCKNDGTCNSDPVDFYRCTCPYGFKGQDCDVPIHACISNPCKHGGTCHLKEGEEDGFWCICADGFEGENCEVNVDDCEDNDCENNSTCVDGINNYTCLCPPEYTGELCEEKLDFCAQDLNPCQHDSKCILTPKGFKCDCTPGYVGEHCDIDFDDCQDNKCKNGAHCTDAVNGYTCICPEGYSGLFCEFSPPMVLPRTSPCDNFDCQNGAQCIVRINEPICQCLPGYQGEKCEKLVSVNFINKESYLQIPSAKVRPQTNITLQIATDEDSGILLYKGDKDHIAVELYRGRVRASYDTGSHPASAIYSVETINDGNFHIVELLALDQSLSLSVDGGNPKIITNLSKQSTLNFDSPLYVGGMPGKSNVASLRQAPGQNGTSFHGCIRNLYINSELQDFQKVPMQTGILPGCEPCHKKVCAHGTCQPSSQAGFTCECQEGWMGPLCDQRTNDPCLGNKCVHGTCLPINAFSYSCKCLEGHGGVLCDEEEDLFNPCQAIKCKHGKCRLSGLGQPYCECSSGYTGDSCDREISCRGERIRDYYQKQQGYAACQTTKKVSRLECRGGCAGGQCCGPLRSKRRKYSFECTDGSSFVDEVEKVVKCGCTRCVS

Legend:
[1] = tested on: ROBO1 mRNA; assay: Quantitative real-time PCR of ROBO1 transcript after ROBO1 silencing; type: cell-based, human; details: clones Sh1.32 and Sh1.33 vs scrambled-transfected SC2.1 and SC2.4 cells
Description: (§1) The small hairpins RNA (siRNA) against human Robo1 were designed with the Promega Si Designer tool. The oligos used were as follows: ShRNA-RB1 forward, 5′-ACCgCAgTACTAAgggAA-CAATAAgTTCTCTATTgTTCCCTTAgTACTgCTTTTTC-3′(SEQ ID NO:1); ShRNA-RB1 reverse, 5′-TgCAgAAAAAgCAg-TACTAAgggAACAATAgAgAACTTATTgTTCCCTT-AgTACTg-3′ (SEQ ID NO:2).
(§2) The shRNAs and corresponding scrambles duplex were synthesized with the psiSTRIKE puromycin kit (Promega) under U6 promoter. MDA-MB-231/B02-Frt11 cells were transfected with the siRNA and scrambles duplex with Transfast Transfection Reagent (Promega), according to the manufacturer's instructions. Selection of the clones was obtained after growing the cells for two weeks in the presence of puromycin (2 μg/ml).
(§3) RNA isolation, reverse transcriptase-polymerase chain reaction (RT-PCR), and quantitative real-time PCR (qPCR): RNA was extracted from cells using the Nucleospin RNA II kit (Macherey-Nagel) and cDNA produced from 2 μg total RNA using the MMLV polymerase Promega. qPCR was performed using SYBR Green qPCR Kit (Finnzymes). Probes were purchased from Invitrogen.

[2] = tested on: ROBO4 mRNA; assay: ROBO4 mRNA expression after ROBO1 silencing; type: cell-based, human; details: ROBO1 silencing in MDA-MB-231/B02 cells
Description: as §1, §2, §3

[3] = tested on: ROBO1; assay: Confocal microscopy of ROBO1 immunostaining; type: cell-based, human; details: ShRNA-transfected vs scrambled-transfected cells
Protocol: Confocal microscopy: Subconfluent cell layers were fixed in 4% (w/v) formaldehyde for 30 min, washed three times with PBS and permeabilized for 5 min in PBS containing 0.2% (v/v) Triton-X-100. Permeabilized cells were then incubated with rabbit anti-Robo1 antibody ab7279 (17 μg/ml; AbCam) for 1 h, washed in PBS then incubated with a secondary, FITC-conjugated, anti-rabbit antibody (Sigma). Actin was labeled with phalloidin (Invitrogen) and nuclei were labeled with DAPI. Slides were viewed using confocal microscope Leica TCS-SP2.

[4] = tested on: MDA-MB-231/B02 human breast cancer cells; assay: Cell invasion assay (Matrigel-coated inserts); type: cell-based; details: Sh1.32 and Sh1.33 cells vs scrambled-transfected and parental cells
Protocol: Cell migration and invasion assays: Cell migration and invasion assays were performed in 24-well cell culture chambers with 8-μm diameter pore-size inserts (Becton Dickinson), as previously described (Zhang et al., Cancer Res., 67:5821-5830, 2007). Inserts were coated with 100-μl basement membrane Matrigel (3 μg/ml; Becton Dickinson) for 90 min at 37° C. in order to perform cell invasion experiments. Cancer cells (1.5×10^5 cells/ml) were re-suspended in DMEM culture medium containing 0.1% (w/v) bovine serum albumin and 300-μl of this cell suspension were loaded into each insert (upper chamber). The chemoattractant [10% (v/v) fetal calf serum] was placed in the lower chamber (750 μl/well). The plates were incubated for 6 h at 37° C. in a 5% CO2 incubator. After incubation, the inserts were collected carefully, the nonmigrating cells were removed and the migrating cells on the under surface of the inserts were fixed and stained with crystal violet. The membranes were mounted on glass slides and cells were counted under microscope.

[5] = tested on: MDA-MB-231/B02 human breast cancer cells; assay: Scratch wound assay; type: cell-based; details: Sh-transfected vs parental and scrambled-transfected cells; statistically significant
Protocol: Scratch wound assay: Cells were seeded at a concentration of 1×10^5 cells into 24-well plates and cultured for 24 hours at 37° C. in culture medium containing 10% (v/v) fetal calf serum. After incubation, the culture medium was removed and cells were further cultured in medium containing or not containing 5% (v/v) fetal calf serum, at which time a wound scratch was made on the cell monolayer by using a 20-μl micropipette tip. Cells were fixed, stained with crystal violet, and photographed 24 h later. Alternatively, cell migration was monitored by time-lapse videomicroscopy. Microscopic images were recorded, in a time lapse mode, with a CCD camera attached to a phase contrast microscope (Zeiss Axiovert 200M) and the behaviour of migrating cells was tracked over 24 hours using ImageJ software. Analysis of the images was performed using MetaMorph software.

[6] = tested on: breast cancer cells expressing ROBO1 (SC-transfected MDA-MB-231/B02); assay: Effect of Slit2 on cell migration (96-microwell plates); type: cell-based, human; details: conditioned medium from Slit2-expressing HEK cells; effect seen in SC-transfected cells as opposed to Sh-transfected (ROBO1-silenced) cells
Protocol: The effects of Slit2, […] (RANKL) and osteoprotegerin (OPG) on cell migration were studied using 96-microwell plates (Millipore). Experiments were carried out essentially as described above with minor modifications. Briefly, inserts were loaded with 75 μl of a cell suspension (2×10^5 cells/ml) and 150 μl of chemoattractant was placed in the lower chamber. The chemoattractant consisted of culture medium containing 0.5% (v/v) fetal calf serum with or without RANKL, OPG or the conditioned medium from Slit2-expressing HEK cells. Remaining of the experiments was as described above.

Molecule | ROBO1 transcript down regulation [1] [%] | effect on ROBO4 mRNA expression levels [2] | ROBO1 immunostaining at the plasma membrane [3] | invasion [4] | wound closure [5] | migration of SC-transfected cells induced by FCS [6]
B1 | 90 | did not affect | totally disappeared | substantial gain in invasion | faster wound closure | 
B2 |  |  |  |  |  | inhibited the migration
